# Publication PMC9932110
# Tests used:
# [1] = target: Armc8β (mouse); experiment: native gel or EMSA; blue native PAGE of Armc8β
# [2] = target: Armc8β (mouse); experiment: SEC-MALS; Armc8β alone, dilution series from two purifications; molar mass at the peak against peak concentration, one-site and two-site models; monomer to dimer and higher
# [3] = target: Armc8β (mouse); experiment: ITC; ITC-200, 25 °C, 20 mM tricine pH 8.0, 150 or 200 mM NaCl, 1 mM TCEP; 50-150 μM in the syringe, 10 times lower in the cell; one-site model
# [4] = target: Wdr26 (mouse) (UniProt Q8C6G8); experiment: as above
# Wdr26 (mouse), sequence (Q8C6G8 other isoform, or with tags, fused parts or gaps): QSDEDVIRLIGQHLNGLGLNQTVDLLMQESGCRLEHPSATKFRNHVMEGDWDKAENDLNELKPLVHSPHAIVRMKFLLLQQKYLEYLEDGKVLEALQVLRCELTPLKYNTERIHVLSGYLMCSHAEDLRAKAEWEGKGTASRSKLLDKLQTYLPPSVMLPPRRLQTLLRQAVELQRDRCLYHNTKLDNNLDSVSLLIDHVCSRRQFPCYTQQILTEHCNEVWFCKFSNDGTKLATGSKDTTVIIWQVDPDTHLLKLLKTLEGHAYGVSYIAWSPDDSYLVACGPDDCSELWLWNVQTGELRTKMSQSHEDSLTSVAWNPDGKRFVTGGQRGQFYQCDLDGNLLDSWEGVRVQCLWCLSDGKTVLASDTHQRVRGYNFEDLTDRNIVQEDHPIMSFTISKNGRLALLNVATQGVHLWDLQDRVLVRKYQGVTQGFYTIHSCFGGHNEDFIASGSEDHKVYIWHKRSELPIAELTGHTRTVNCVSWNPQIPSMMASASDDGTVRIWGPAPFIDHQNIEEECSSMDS
# [5] = target: muskelin (rat) (UniProt Q99PV3); experiment: as above
# muskelin (rat), sequence (Q99PV3 whole entry): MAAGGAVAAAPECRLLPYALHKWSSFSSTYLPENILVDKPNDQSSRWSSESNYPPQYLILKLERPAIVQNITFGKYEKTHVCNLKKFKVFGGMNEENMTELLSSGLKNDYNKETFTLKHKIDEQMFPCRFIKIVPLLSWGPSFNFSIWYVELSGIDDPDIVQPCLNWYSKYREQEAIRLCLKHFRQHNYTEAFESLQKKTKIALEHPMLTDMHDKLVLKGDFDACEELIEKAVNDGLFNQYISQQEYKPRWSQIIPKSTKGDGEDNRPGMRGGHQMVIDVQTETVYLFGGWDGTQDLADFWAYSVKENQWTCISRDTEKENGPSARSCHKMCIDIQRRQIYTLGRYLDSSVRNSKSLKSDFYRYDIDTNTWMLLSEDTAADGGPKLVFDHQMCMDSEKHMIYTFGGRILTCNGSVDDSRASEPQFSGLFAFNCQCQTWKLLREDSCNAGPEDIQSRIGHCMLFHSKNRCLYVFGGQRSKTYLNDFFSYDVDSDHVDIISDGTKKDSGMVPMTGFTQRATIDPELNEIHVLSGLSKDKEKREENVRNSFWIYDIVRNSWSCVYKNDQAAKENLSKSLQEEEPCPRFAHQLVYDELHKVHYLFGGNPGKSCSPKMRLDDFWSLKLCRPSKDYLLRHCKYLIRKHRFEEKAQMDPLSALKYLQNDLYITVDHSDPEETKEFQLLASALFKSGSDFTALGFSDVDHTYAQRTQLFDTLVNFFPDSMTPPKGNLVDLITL
# [6] = target: Armc8β (mouse); experiment: SEC-MALS; Twa1, Armc8β and their mixture at low concentrations
# [7] = target: Twa1–Armc8β complex (mouse) (UniProt Q9D7M1); experiment: SEC-MALS; Tβ complex, dilution series; molar mass at the peak against peak concentration, one-site model; Tβ heterodimer to higher order oligomers
# Twa1, sequence (Q9D7M1 whole entry): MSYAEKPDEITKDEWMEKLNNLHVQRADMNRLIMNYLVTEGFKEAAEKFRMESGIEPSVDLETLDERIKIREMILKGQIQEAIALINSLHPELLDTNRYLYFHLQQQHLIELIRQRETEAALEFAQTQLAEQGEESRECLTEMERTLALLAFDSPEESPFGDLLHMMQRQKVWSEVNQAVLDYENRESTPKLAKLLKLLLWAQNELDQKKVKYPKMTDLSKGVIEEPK
substance,measurement,setting,value
Armc8β (natural protein),stoichiometry N,[1],3
same,KD high (two-site binding model),[2],1800 nM
same,KD low (two-site binding model),[2],> 40000 nM
same,Kd,[2],5100 nM
same,stoichiometry N,[2],1 to 2
RanBP9–Twa1 complex (from UniProt P69566 1-653; Q9D7M1 1-228),Kd,[3],8.1 nM
same,Kd,[4],3.4 nM
same,stoichiometry N,[4],0.95
same,Kd,[5],1.7 nM
same,stoichiometry N,[5],1
Twa1 (from UniProt Q9D7M1 1-228) (natural protein),stoichiometry N,[6],1
same,Kd,[3],34.4 nM
Twa1–Armc8β complex (from UniProt Q9D7M1 1-228),Kd,[7],6200 nM
same,stoichiometry N,[7],8.2
